Laboratory results as given in US20240200091A1, “USE OF PROTOPORPHYRINOGEN OXIDASE” (BEIJING DABEINONG BIOTECHNOLOGY CO., LTD., priority 2021, published 2024).

Legend:
Format in all cases: in vivo
Details in all cases: 7 DAT, number of plants of 24 per genotype, grades
[1] = system: Arabidopsis thaliana T1 plants; assay: saflufenacil tolerance of transgenic Arabidopsis thaliana T1 plants (spray, grade of pesticide damage)
Description: (§1) The transformed Arabidopsis thaliana T1 plants were initially selected using glufosinate herbicide. The Arabidopsis thaliana T1 plants (PPO1A) into which the PPO1A nucleotide sequence was introduced, the Arabidopsis thaliana T1 plants (PPO2A) into which the PPO2A nucleotide sequence was introduced, the Arabidopsis thaliana T1 plants (PPO3A) into which the PPO3A nucleotide sequence was introduced, the Arabidopsis thaliana T1 plants (PPO4A) into which the PPO4A nucleotide sequence was introduced, the Arabidopsis thaliana T1 plants (PPO5A) into which the PPO5A nucleotide sequence was introduced, the Arabidopsis thaliana T1 plants (PPO6A) into which the PPO6A nucleotide sequence was introduced, the Arabidopsis thaliana T1 plants (PPO7A) into which the PPO7A nucleotide sequence was introduced, the Arabidopsis thaliana T1 plants (PPO8A) into which the PPO8A nucleotide sequence was introduced, the Arabidopsis thaliana T1 plants (PPO9A) into which the PPO9A nucleotide sequence was introduced, the Arabidopsis thaliana T1 plants (PPO10A) into which the […] nucleotide sequence was introduced, the Arabidopsis thaliana T1 plants (PPO11A) into which the PPO11A nucleotide sequence was introduced, the Arabidopsis thaliana T1 plants (PPO12A) into which the PPO12A nucleotide sequence was introduced, the Arabidopsis thaliana T1 plants (PPO13A) into which the PPO13A nucleotide sequence was introduced, the Arabidopsis thaliana T1 plants (PPO14A) into which the PPO14A nucleotide sequence was introduced, the Arabidopsis thaliana T1 plants (PPO-ATA) into which the PPO-ATA nucleotide sequence was introduced, the Arabidopsis thaliana T1 plants (PPO-APA) into which the PPO-APA nucleotide sequence was introduced, the Arabidopsis thaliana T1 plants (control vector) into which the control vector was introduced, and the wild-type Arabidopsis thaliana plants (CK) (with 24 plants being included in each genotype) (18 days after sowing) were sprayed with oxyfluorfen at three concentrations (180 g ai/ha (one-fold field concentration, 1×), 720 g ai/ha (four-fold field concentration, 4×), and 0 g ai/ha (water, 0×)), saflufenacil at three concentrations (25 g ai/ha (one-fold field concentration, 1×), 100 g ai/ha (four-fold field concentration, 4×), and 0 g ai/ha (water, 0×)), flumioxazin at three concentrations (60 g ai/ha (one-fold field concentration, 1×), 240 g ai/ha (four-fold field concentration, 4×), and 0 g ai/ha (water, 0×), and sulfentrazone at three concentrations (450 g ai/ha (one-fold field concentration, 1×), 900 g ai/ha (two-fold field concentration, 2×), and 0 g ai/ha (water, 0×) to determine the tolerance of Arabidopsis thaliana to the herbicides. After 7 days of spraying (7 DAT), the damage level of each plant caused by the herbicide was evaluated according to the average of the damage levels (%) of plants (the average of the damage levels (%) of plants=the injured leaf area/the total leaf area×[…]), i.e., the grade of pesticide damage: grade 0 means that the growth status of plants is essentially consistent with those sprayed with the blank solvent (water); grade 1 means that the average of the damage levels of plants is less than 10%; grade 2 means that the average of the damage levels of plants is greater than […]; and grade 3 means that the average of the damage levels of plants is 100%. The plants having a growth status falling within grades 0 and 1 are classified as highly resistant plants; those having a growth status falling within grade 2 are classified as poorly resistant plants; and those having a growth status falling within grade 3 are classified as non-resistant plants.

[2] = system: Arabidopsis thaliana T1 plants; assay: sulfentrazone tolerance of transgenic Arabidopsis thaliana T1 plants (spray, grade of pesticide damage)
Description: as §1

[3] = system: Arabidopsis thaliana T1 plants; assay: flumioxazin tolerance of transgenic Arabidopsis thaliana T1 plants (spray, grade of pesticide damage)
Description: as §1

[4] = system: Arabidopsis thaliana T1 plants; assay: oxyfluorfen tolerance of transgenic Arabidopsis thaliana T1 plants (spray, grade of pesticide damage)
Description: as §1

Molecule	The grade of pesticide damage/plant: grade 0 ([1]; saflufenacil 25 g ai/ha (1×)) [plant]	The grade of pesticide damage/plant: grade 1 ([1]; saflufenacil 25 g ai/ha (1×)) [plant]	The grade of pesticide damage/plant: grade 2 ([1]; saflufenacil 25 g ai/ha (1×)) [plant]	The grade of pesticide damage/plant: grade 3 ([1]; saflufenacil 25 g ai/ha (1×)) [plant]	The grade of pesticide damage/plant: grade 0 ([1]; saflufenacil 100 g ai/ha (4×)) [plant]	The grade of pesticide damage/plant: grade 1 ([1]; saflufenacil 100 g ai/ha (4×)) [plant]	The grade of pesticide damage/plant: grade 2 ([1]; saflufenacil 100 g ai/ha (4×)) [plant]	The grade of pesticide damage/plant: grade 3 ([1]; saflufenacil 100 g ai/ha (4×)) [plant]	The grade of pesticide: grade 0 ([2]; sulfentrazone 450 g ai/ha (1×))	The grade of pesticide: grade 1 ([2]; sulfentrazone 450 g ai/ha (1×))	The grade of pesticide: grade 2 ([2]; sulfentrazone 450 g ai/ha (1×))	The grade of pesticide: grade 3 ([2]; sulfentrazone 450 g ai/ha (1×))	The grade of pesticide: grade 0 ([2]; sulfentrazone 900 g ai/ha (2×))	The grade of pesticide: grade 1 ([2]; sulfentrazone 900 g ai/ha (2×))	The grade of pesticide: grade 2 ([2]; sulfentrazone 900 g ai/ha (2×))	The grade of pesticide: grade 3 ([2]; sulfentrazone 900 g ai/ha (2×))	The grade of pesticide damage/plant: grade 0 ([3]; flumioxazin 60 g ai/ha (1×)) [plant]	The grade of pesticide damage/plant: grade 1 ([3]; flumioxazin 60 g ai/ha (1×)) [plant]	The grade of pesticide damage/plant: grade 2 ([3]; flumioxazin 60 g ai/ha (1×)) [plant]	The grade of pesticide damage/plant: grade 3 ([3]; flumioxazin 60 g ai/ha (1×)) [plant]	also measured
PPO2A: nucleotide sequence encoding microbial protoporphyrinogen oxidase PPO2 (SEQ ID NO:2), Arabidopsis thaliana/soybean common codon usage bias (nucleic acid, PPO2A Nucleotide Sequence) DNA: ATGAGAGCCTTGCTTCTCTACAGCAGTCAAGAAGGGCAGACAAGAAAAATCATTCAGAGAATAGCAGCTCAAATGCCTGAGTACACTTGTGAAGTTCAAGATTTGCATCAATCAATAGATATTGATTGGGCCGAGTATGACAAAGTTTTAATTGGTGCATCCATCCGGTATGGACGTTTGAACCCTGCACTTTACAGGTTCATTGAGCATCACCTCGTTGGTTTGACCTCAAGGAAGGCTGCTTTCTTCTGCGTAAATCTTACCGCAAGGAAAGAACAACAAGGGAAAGACACTCCACAGGGCTCTGCATATATTCAAACATTTTTGAAGAAGAGTGCTTGGCAACCCGAAAGGATTGCTGTTTTTGCTGGTGCCCTTTATTATCCAAGATACAGATGGTTTGATAAGATGATGATCCGACTCATCATGACGTTAACTGGAGGAGAAACTGATACATCTCAGGAGGTGGAATATACAAACTGGGATAAAGTCGTGAAGTTTGCAGAGCAGTTTCGGAATTGGTGA	24	0	0	0	6	18	0	0	24	0	0	0	20	4	0	0	24	0	0	0	The grade of pesticide damage/plant: grade 0 ([3]; flumioxazin 240 g ai/ha (4×)): 24 plant; The grade of pesticide damage/plant: grade 1 ([3]; flumioxazin 240 g ai/ha (4×)): 0 plant; The grade of pesticide damage/plant: grade 2 ([3]; flumioxazin 240 g ai/ha (4×)): 0 plant; The grade of pesticide damage/plant: grade 3 ([3]; flumioxazin 240 g ai/ha (4×)): 0 plant; The grade of pesticide damage/plant: grade 0 ([4]; oxyfluorfen 180 g ai/ha (1×)): 24 plant; The grade of pesticide damage/plant: grade 1 ([4]; oxyfluorfen 180 g ai/ha (1×)): 0 plant; The grade of pesticide damage/plant: grade 2 ([4]; oxyfluorfen 180 g ai/ha (1×)): 0 plant; The grade of pesticide damage/plant: grade 3 ([4]; oxyfluorfen 180 g ai/ha (1×)): 0 plant; The grade of pesticide damage/plant: grade 0 ([4]; oxyfluorfen 720 g ai/ha (4×)): 20 plant; The grade of pesticide damage/plant: grade 1 ([4]; oxyfluorfen 720 g ai/ha (4×)): 4 plant; The grade of pesticide damage/plant: grade 2 ([4]; oxyfluorfen 720 g ai/ha (4×)): 0 plant; The grade of pesticide damage/plant: grade 3 ([4]; oxyfluorfen 720 g ai/ha (4×)): 0 plant
PPO3A: nucleotide sequence encoding microbial protoporphyrinogen oxidase PPO3 (SEQ ID NO:3), Arabidopsis thaliana/soybean common codon usage bias (nucleic acid, PPO3A Nucleotide Sequence) DNA: ATGAGTGCCCTGTTGTTGTATTGTTCAACTGATGGTCAAACCAAGAAGATAATGACACAGATAGCTAATGAACTGAGACAACATGGTTATGAATGTGATGTGCGGGATCTTACTTCTGTTCAACAAAATCTCAATCTTTCAGCTTACAACAAAGTTTTGGTAGGAGCTTCCATAAGATATGGATACTTCAATAAAGCACTTGACAAGTTCATCACGAGGCACCTCTCTCAGTTAAACAACATGCCTTCTGCTTTCTTTGGTGTCAATTTGACTGCAAGAAAAGAAGAGAAGAGCACTCCCGAAACAAACAGTTACATCTGCAAGTTTCTAGACAAAACACCATGGAAACCAACCTTAACTGGAGTCTTCGCCGGGGCGCTTTTTTATCCTCGTTACAAATGGATTGATCGAGTGATGATTCAGCTTATCATGAAGATGACTAAAGGAGAAACCGATCCGACAAAAGAGATTGAGTATACAGATTGGAACAAGGTTTCGGAGTTTGCTACGAATTTTGCAAAGATTGGCTGA	24	0	0	0	2	22	0	0	24	0	0	0	20	4	0	0	24	0	0	0	The grade of pesticide damage/plant: grade 0 ([3]; flumioxazin 240 g ai/ha (4×)): 24 plant; The grade of pesticide damage/plant: grade 1 ([3]; flumioxazin 240 g ai/ha (4×)): 0 plant; The grade of pesticide damage/plant: grade 2 ([3]; flumioxazin 240 g ai/ha (4×)): 0 plant; The grade of pesticide damage/plant: grade 3 ([3]; flumioxazin 240 g ai/ha (4×)): 0 plant; The grade of pesticide damage/plant: grade 0 ([4]; oxyfluorfen 180 g ai/ha (1×)): 24 plant; The grade of pesticide damage/plant: grade 1 ([4]; oxyfluorfen 180 g ai/ha (1×)): 0 plant; The grade of pesticide damage/plant: grade 2 ([4]; oxyfluorfen 180 g ai/ha (1×)): 0 plant; The grade of pesticide damage/plant: grade 3 ([4]; oxyfluorfen 180 g ai/ha (1×)): 0 plant; The grade of pesticide damage/plant: grade 0 ([4]; oxyfluorfen 720 g ai/ha (4×)): 20 plant; The grade of pesticide damage/plant: grade 1 ([4]; oxyfluorfen 720 g ai/ha (4×)): 4 plant; The grade of pesticide damage/plant: grade 2 ([4]; oxyfluorfen 720 g ai/ha (4×)): 0 plant; The grade of pesticide damage/plant: grade 3 ([4]; oxyfluorfen 720 g ai/ha (4×)): 0 plant
